Substitutions are numbered along the chain they refer to. Numbers in names are those of the source.

We go through 36 molecules from patent EP2336190A2 (Genentech, Inc., dated 2011).

The chains are these.
T1: VEGF121 (human, UniProt P15692 27-147)
T1 construct: mature; also called Purified VEGF121
T1 sequence (looked up): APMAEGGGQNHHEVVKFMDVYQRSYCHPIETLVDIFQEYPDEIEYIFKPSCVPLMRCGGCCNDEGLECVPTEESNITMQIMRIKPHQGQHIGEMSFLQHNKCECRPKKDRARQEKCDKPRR

B1: hu2.10V (Fab, V domains shown)
VH: EVQLVESGGGLVQPGGSLRLSCAASGYTFTNYGMNWIRQAPGKGLEWVGWINTYTGEPTYAADFKRRFTISLDTSASTVYLQMNSLRAEDTAVYYCAKYPHYYGSSHWYFDVWGQGTLVTVSS
VL: DIQMTQSPSSLSASVGDRVTITCSASQDISNYLNWYQQKPGKAPKVLIYFTSSLHSGVPSRFSGSGSGTDYTLTISSLQPEDFATYYCQQYSTVPWTFGQGTKVEIK
notes: Soluble Fab with human constant domains; also called hu2.10 with mutation VL Leu->Val
B2: muMAb VEGF A.4.6.1 (antibody, V domains shown)
VH: EIQLVQSGPELKQPGETVRISCKASGYTFTNYGMNWVKQAPGKGLKWMGWINTYTGEPTYAADFKRRFTFSLETSASTAYLQISNLKNDDTATYFCAKYPHYYGSSHWYFDVWGAGTTVTVSS
VL: DIQMTQTTSSLSASLGDRVIISCSASQDISNYLNWYQQKPDGTVKVLIYFTSSLHSGVPSRFSGSGSGTDYSLTISNLEPEDIATYYCQQYSTVPWTFGGGTKLEIKR
B3: Y0313-1 (Fab, V domains shown)
VH: EVQLVESGGGLVQPGGSLRLSCAASGYDFTHYGMNWVRQAPGKGLEWVGWINTYTGEPTYAADFKRRFTFSLDTSKSTAYLQMNSLRAEDTAVYYCAKYPYYYGTSHWYFDVWGQGTL
VL: DIQLTQSPSSLSASVGDRVTITCRANEQLSNYLNWYQQKPGKAPKVLIYFTSSLHSGVPSRFSGSGSGTDFTLTISSLQPEDFATYYCQQYSTVPWTFGQGTKVEIKR
notes: Combination variant: Y0243-1 plus VH3 H101Y and S105T; soluble Fab
B4: hu2.10 (Fab, V domains shown)
VH: B1 VH
VL: B1 VL with V46L
notes: Phage-selected consensus clone, purified soluble Fab with human constant domains; also called consensus clone hu2.10
B5: pY0192 VH Y27A (Fab, V domains shown)
VH: B3 VH with Y27A, D28T, H31N, M34I, Y101H, T105S
VL: B3 VL
B6: pY0192 VH T59A (Fab, V domains shown)
VH: B3 VH with D28T, H31N, M34I, T59A, Y101H, T105S
VL: B3 VL
B7: pY0192 VH F110A (Fab, V domains shown)
VH: B3 VH with D28T, H31N, M34I, Y101H, T105S, F110A
VL: B3 VL
B8: pY0192 VH I51A (Fab, V domains shown)
VH: B3 VH with D28T, H31N, M34I, I51A, Y101H, T105S
VL: B3 VL
B9: pY0192 VH Y103A (Fab, V domains shown)
VH: B3 VH with D28T, H31N, M34I, Y101H, Y103A, T105S
VL: B3 VL
B10: pY0192 VH N31A (Fab, V domains shown)
VH: B3 VH with D28T, H31A, M34I, Y101H, T105S
VL: B3 VL
B11: pY0192 VH P100A (Fab, V domains shown)
VH: B3 VH with D28T, H31N, M34I, P100A, Y101H, T105S
VL: B3 VL
B12: pY0192 VH Y102A (Fab, V domains shown)
VH: B3 VH with D28T, H31N, M34I, Y101H, Y102A, T105S
VL: B3 VL
B13: pY0192 VH N52A (Fab, V domains shown)
VH: B3 VH with D28T, H31N, M34I, N52A, Y101H, T105S
VL: B3 VL
B14: pY0192 VH Y32A (Fab, V domains shown)
VH: B3 VH with D28T, H31N, Y32A, M34I, Y101H, T105S
VL: B3 VL
B15: pY0192 VH G33A (Fab, V domains shown)
VH: B3 VH with D28T, H31N, G33A, M34I, Y101H, T105S
VL: B3 VL
B16: pY0192 VH W50A (Fab, V domains shown)
VH: B3 VH with D28T, H31N, M34I, W50A, Y101H, T105S
VL: B3 VL
B17: pY0192 VH S106A (Fab, V domains shown)
VH: B3 VH with D28T, H31N, M34I, Y101H, T105S, S106A
VL: B3 VL
B18: pY0192 VH H101A (Fab, V domains shown)
VH: B3 VH with D28T, H31N, M34I, Y101A, T105S
VL: B3 VL
B19: pY0192 VH F29A (Fab, V domains shown)
VH: B3 VH with D28T, F29A, H31N, M34I, Y101H, T105S
VL: B3 VL
B20: pY0192 VH Y109A (Fab, V domains shown)
VH: B3 VH with D28T, H31N, M34I, Y101H, T105S, Y109A
VL: B3 VL
B21: pY0192 VH N35A (Fab, V domains shown)
VH: B3 VH with D28T, H31N, M34I, N35A, Y101H, T105S
VL: B3 VL
B22: pY0192 VH T55A (Fab, V domains shown)
VH: B3 VH with D28T, H31N, M34I, T55A, Y101H, T105S
VL: B3 VL
B23: pY0192 VH I34A (Fab, V domains shown)
VH: B3 VH with D28T, H31N, M34A, Y101H, T105S
VL: B3 VL
B24: pY0192 VH Y99A (Fab, V domains shown)
VH: B3 VH with D28T, H31N, M34I, Y99A, Y101H, T105S
VL: B3 VL
B25: pY0192 VH T53A (Fab, V domains shown)
VH: B3 VH with D28T, H31N, M34I, T53A, Y101H, T105S
VL: B3 VL
B26: pY0192 VH Y54A (Fab, V domains shown)
VH: B3 VH with D28T, H31N, M34I, Y54A, Y101H, T105S
VL: B3 VL
B27: pY0192 VH W108A (Fab, V domains shown)
VH: B3 VH with D28T, H31N, M34I, Y101H, T105S, W108A
VL: B3 VL
B28: Y0244-4 (Fab, V domains shown)
VH: B3 VH with D28T, H31N, M34I, L72I, T74K, Y101H, T105S
VL: B3 VL
notes: substitutions deduced against Y0192; soluble Fab
B29: Y0238-5 (Fab, V domains shown)
VH: B3 VH with D28T, H31N, M34I, Y103I, G104A, T105K
VL: B3 VL
notes: Library YC-81 (VH3) on the pY0192 template; substitutions deduced against Y0192; soluble Fab
B30: Y0244-1 (Fab, V domains shown)
VH: B3 VH with D28T, H31N, M34I, L72V, T74V, Y101H, T105S
VL: B3 VL
notes: only the randomized region is printed, substitutions deduced against Y0192; soluble Fab from E. coli 34B8
B31: Y0238-1 (Fab, V domains shown)
VH: B3 VH with D28T, H31N, M34I, Y103R
VL: B3 VL
notes: as for B29
B32: Y0238-3 (Fab, V domains shown)
VH: B3 VH with D28T, H31N, M34I
VL: B3 VL
notes: CDRH3 variant (H101Y, S105T) from library YC-81; soluble Fab
B33: Y0313-3 (Fab, V domains shown)
VH: B3 VH with D28T, H31N, M34I, T105S
VL: B3 VL
notes: Reversion mutant of Y0238-3; soluble Fab
B34: Y0238-10 (Fab, V domains shown)
VH: B3 VH with D28T, H31N, M34I, Y103R, G104N
VL: B3 VL
notes: as for B29
B35: Y0238-7 (Fab, V domains shown)
VH: B3 VH with D28T, H31N, M34I, Y103W
VL: B3 VL
notes: as for B29
B36: Y0243-1 (Fab, V domains shown)
VH: B3 VH with Y101H, T105S
VL: B3 VL
notes: CDRH1 variant (T28D, N31H) from library HL-265; soluble Fab

One assay concerns the target T1, VEGF121. The assay is described as follows: BIAcore SPR, VEGF121 immobilised. In general terms: SPR reads the build-up and loss of mass on a sensor chip optically.
Turning to B1, the “fold improvement in KD over hu2.10” value turned out to be 6 fold.

Another assay addresses T2, VEGF (human, UniProt P15692-4 27-191, limits assumed).
T2 construct: also called human VEGF; vascular endothelial growth factor
The assay is described as follows: KDR-IgG competition ELISA, biotinylated VEGF, 10% human serum. For orientation: An ELISA detects its analyte on a solid surface through an enzyme-linked reagent.
Take B2: the IgG1/chIgG1 (EC50 ratio) was 0.759.

In another assay the target is rhVEGF165 (human, UniProt P15692 27-191). The assay is described as follows: cell-based or functional assay.
Regarding B3, the “potency in inhibiting VEGF-induced HuVEC DNA synthesis, against the wild-type Fab (Y0192)” value was determined as 30 fold.

The target of the next assay is T1, VEGF121. The assay is described as follows: BIAcore SPR, VEGF121 immobilised, Fab in solution.
Regarding B4, the “KD(A4.6.1)/KD(mut) as headed (values are KD(mut) over KD of the chimera)” value came to 35 ratio.

B1: the “KD(A4.6.1)/KD(mut) as headed (values are KD(mut) over KD of the chimera)” value stood at 5.8 ratio.

In a further assay the target is T2, VEGF. The assay is described as follows: competitive phage-ELISA, wt = pY0192.
Target sequence in this assay (P15692 other isoform, or with tags, fused parts or gaps limits assumed): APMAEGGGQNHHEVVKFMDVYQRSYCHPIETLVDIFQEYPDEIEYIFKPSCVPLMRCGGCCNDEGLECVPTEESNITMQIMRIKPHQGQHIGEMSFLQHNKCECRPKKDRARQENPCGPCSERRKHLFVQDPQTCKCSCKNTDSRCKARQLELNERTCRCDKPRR
As for B5, the IC50 (mut) / IC50 (wt) was 34.

For B6, the IC50 (mut) / IC50 (wt) was 3.

On to B7, for which the IC50 (mut) / IC50 (wt) is 25.

B8: the IC50 (mut) / IC50 (wt) came out at 4.

For the molecule B9, the IC50 (mut) / IC50 (wt) turned out to be 5.

In the case of B10, the IC50 (mut) / IC50 (wt) was over 150.

In turn, B11 returned an IC50 (mut) / IC50 (wt) of 38.

On to B12, for which the IC50 (mut) / IC50 (wt) amounted to 4.

As to B13, the IC50 (mut) / IC50 (wt) is over 150.

For the molecule B14, the IC50 (mut) / IC50 (wt) was over 150.

In turn, B15 displayed an IC50 (mut) / IC50 (wt) of 6.

Regarding B16, the IC50 (mut) / IC50 (wt) was over 150.

As for B17, the IC50 (mut) / IC50 (wt) was over 150.

In turn, B18 showed an IC50 (mut) / IC50 (wt) of 4.

B19 returned an IC50 (mut) / IC50 (wt) of 16.

B20 came in with an IC50 (mut) / IC50 (wt) of 19.

Molecule B21 had an IC50 (mut) / IC50 (wt) of 66.

Molecule B22 yielded an IC50 (mut) / IC50 (wt) of 4.

The molecule B23 showed an IC50 (mut) / IC50 (wt) of 6.

The molecule B24 yielded an IC50 (mut) / IC50 (wt) of over 150.

Molecule B25 registered an IC50 (mut) / IC50 (wt) of 9.

As to B26, the IC50 (mut) / IC50 (wt) worked out at 9.

Regarding B27, the IC50 (mut) / IC50 (wt) was over 150.

A further assay addresses T2, VEGF. The assay is described as follows: BIAcore-2000 SPR, wt = Y0192.
Target sequence in this assay (P15692 other isoform, or with tags, fused parts or gaps limits assumed): as above
With B28, the “Kd (wt) / Kd (mut)” value was 0.9 ratio.

On to B29, for which the “Kd (wt) / Kd (mut)” value worked out at 3.2 ratio.

Regarding B30, the “Kd (wt) / Kd (mut)” value amounted to 3.6 ratio.

As for B31, the “Kd (wt) / Kd (mut)” value stood at 7.3 ratio.

For the molecule B32, the “Kd (wt) / Kd (mut)” value is at least 14 ratio.

B33: the “Kd (wt) / Kd (mut)” value was found to be 4.5 ratio.

Regarding B34, the “Kd (wt) / Kd (mut)” value came out at 4.8 ratio.

Turning to B3, the “Kd (wt) / Kd (mut)” value is at least 20 ratio.

For the molecule B35, the “Kd (wt) / Kd (mut)” value was at least 7.3 ratio.

For the molecule B36, the “Kd (wt) / Kd (mut)” value came out at 4.1 ratio.
